Results on three substances are retold here after paper PMC7491321.

pKd: −log10 of the molar value.

The test system of the series is FopA (Salmonella enterica serovar Typhimurium SL1344 (plasmid pCol1B9)). The experiment in a line: EMSA. Background: A gel shift assay detects complexes by their altered migration in electrophoresis.
For the substance Inc RNA, the pKd – broadly, the Kd on a negative log10 scale, so that one unit is a factor of ten – was 6.00. With Inc-repZ complex, the pKd was 6.00.

Substance repZ 5'UTR fragment had a negative-log Kd (pKd) of 6.00.
